# Data taken from paper PMC7001106, “Lipid Interactions of a Ciliary Membrane TRP Channel: Simulation and Structural Studies of Polycystin-2” (Structure(London, England:1993), 2020).
# B1: Polycystin-2, truncated construct hPC2: Pro185 - Asp723 (domain or fragment, human, UniProt Q13563 185-723, looked up)
# chain: PRVAWAERLVRGLRGLWGTRLMEESSTNREKYLKSVLRELVTYLLFLIVLCILTYGMMSSNVYYYTRMMSQLFLDTPVSKTEKTNFKTLSSMEDFWKFTEGSLLDGLYWKMQPSNQTEADNRSFIFYENLLLGVPRIRQLRVRNGSCSIPQDLRDEIKECYDVYSVSSEDRAPFGPRNGTAWIYTSEKDLNGSSHWGIIATYSGAGYYLDLSRTREETAAQVASLKKNVWLDRGTRATFIDFSVYNANINLFCVVRLLVEFPATGGVIPSWQFQPLKLIRYVTTFDFFLAACEIIFCFFIFYYVVEEILEIRIHKLHYFRSFWNCLDVVIVVLSVVAIGINIYRTSNVEVLLQFLEDQNTFPNFEHLAYWQIQFNNIAAVTVFFVWIKLFKFINFNRTMSQLSTTMSRCAKDLFGFAIMFFIIFLAYAQLAYLVFGTQVDDFSTFQECIFTQFRIILGDINFAEIEEANRVLGPIYFTTFVFFMFFILLNMFLAIINDTYSEVKSDLAQQKAEMELSDLIRKGYHKALVKLKLKKNTVD
# notes: Polycystin-2 (PC2, PKD2, TRPP1), human, residues Pro185 to Asp723; For cryo-EM the protein was treated with alpha-L-fucosidase, PNGase F and TEV protease (the tag stands after a TEV site); The forward primer carries an ATG before the Pro185 codon; Homo-tetramer; also called PKD2; TRPP1; not shown: His10, C-terminal, cleaved; FLAG, C-terminal, cleaved
# Target: the molecule itself
# Test: cryo-EM structure; purified PC2 185-723 in UDM detergent, incubated overnight at 4°C with 18:0-20:4 PI(4,5)P2 (1:20, tetramer:lipid) or 18:1 PI(3,5)P2 (1:40); C4 symmetry imposed in the reconstruction
protein,measurement,value
B1,stoichiometry N,4
